What is called Kd is a measure of binding affinity in units of concentration. Lower therefore signals tighter binding. By koff is commonly meant a measure of how fast the partners let go of each other. As a reminder, the kon is the rate constant with which the complex forms. Read a high kon as fast association.

The values below come from US20240182549A1 (published 2024).

Test [1] has as its target T1, SARS-CoV-2 S protein ectodomain trimer (residues 1-1211, foldon trimerization motif, 6xHis tag, AviT (SARS-CoV-2; bacteriophage T4, UniProt P0DTC2 14-1211; P10104 458-484).
Test [2] deals with T1, SARS-CoV-2 S protein ectodomain trimer …. Kind of test: BLI on immobilized S protein.
For test [3] the target is unchanged. Kind of test: BLI on immobilized S protein ECD.
The target is the same in test [4]. The experiment in a line: ELISA on biotinylated S protein trimer captured with immobilized streptavidin. On the technique in general: An ELISA detects its analyte on a solid surface through an enzyme-linked reagent.

B1: peptide-IgG 33^LR1 (peptide p102 fused to the N-terminus of the light chain of IgG 15033) (antibody)
heavy: not shown
light: ECWEWSYQLQEWSPCPGGGGSGGGGSGGGGSGGGGSDIQMTQSPSSLSASVGDRVTITCRASQSVSSAVAWYQQKPGKAPKLLIYSASDLYSGVPSRFSGSRSGTDFTLTISSLQPEDFATYYCQQSYRYPITFGQGTKVEIKRTVAAPSVFIFPPSDEQLKSGTASVVCLLNNFYPREAKVQWKVDNALQSGNSQESVTEQDSKDSTYSLSSTLTLSKADYEKHKVYACEVTHQGLSSPVTKSFNRGEC
As to B1, in test [1], the Kd was 6.1 pM, the koff was determined as 2.2e-06 s⁻¹ and the on-rate (kon) is 350000 M⁻¹ s⁻¹.

B2: 15031 Fab-IgG (tetravalent) (antibody)
heavy: not shown
light: DIQMTQSPSSLSASVGDRVTITCRASQSVSSAVAWYQQKPGKAPKLLIYSASDLYSGVPSRFSGSRSGTDFTLTISSLQPEDFATYYCQQGSYLFTFGQGTKVEIKRTVAAPSVFIFPPSDEQLKSGTASVVCLLNNFYPREAKVQWKVDNALQSGNSQESVTEQDSKDSTYSLSSTLTLSKADYEKHKVYACEVTHQGLSSPVTKSFNRGEC
Turning to B2, in test [2], the binding result is on record as “binds”.

B3: 15031 IgG-Fab (tetravalent) (antibody)
heavy: not shown
light: DIQMTQSPSSLSASVGDRVTITCRASQSVSSAVAWYQQKPGKAPKLLIYSASDLYSGVPSRFSGSRSGTDFTLTISSLQPEDFATYYCQQGSYLFTFGQGTKVEIKRTVAAPSVFIFPPSDEQLKSGTASVVCLLNNFYPREAKVQWKVDNALQSGNSQESVTEQDSKDSTYSLSSTLTLSKADYEKHKVYACEVTHQGLSSPVTKSFNRGEC
B3: in test [2], the binding result is “binds”.

B4: peptide-IgG 33^LN1 (peptide p16 fused to the N-terminus of the light chain of IgG 15033) (antibody)
heavy: not shown
light: DFDFAENWMEQLKVMLGGGGSGGGGSGGGGSGGGGSDIQMTQSPSSLSASVGDRVTITCRASQSVSSAVAWYQQKPGKAPKLLIYSASDLYSGVPSRFSGSRSGTDFTLTISSLQPEDFATYYCQQSYRYPITFGQGTKVEIKRTVAAPSVFIFPPSDEQLKSGTASVVCLLNNFYPREAKVQWKVDNALQSGNSQESVTEQDSKDSTYSLSSTLTLSKADYEKHKVYACEVTHQGLSSPVTKSFNRGEC
In test [1], B4 gave an equilibrium dissociation constant (Kd) of less than 1 pM, a koff of less than 1e-07 s⁻¹ and a kon of 1.1e+06 M⁻¹ s⁻¹. Moreover, the “fold improvement of apparent KD relative to IgG 15033” value in test [3] was greater than 100 fold.

B5: IgG 15031 (antibody, V domains shown)
VH: EVQLVESGGGLVQPGGSLRLSCAASGFDLTGSYMHWVRQAPGKGLEWVAGISASGGATAYADSVKGRFTISADTSKNTAYLQMNSLRAEDTAVYYCARSRSSSYSSSGWRYYSGAFDYWGQGTLVTVSS
VL: DIQMTQSPSSLSASVGDRVTITCRASQSVSSAVAWYQQKPGKAPKLLIYSASDLYSGVPSRFSGSRSGTDFTLTISSLQPEDFATYYCQQGSYLFTFGQGTKVEIKR
On to B5, for which, in test [4], the binding result is “binds”.

B6: peptide-IgG 33^HN1 (peptide p16 fused to the N-terminus of the heavy chain of IgG 15033) (antibody)
heavy: not shown
light: DIQMTQSPSSLSASVGDRVTITCRASQSVSSAVAWYQQKPGKAPKLLIYSASDLYSGVPSRFSGSRSGTDFTLTISSLQPEDFATYYCQQSYRYPITFGQGTKVEIKRTVAAPSVFIFPPSDEQLKSGTASVVCLLNNFYPREAKVQWKVDNALQSGNSQESVTEQDSKDSTYSLSSTLTLSKADYEKHKVYACEVTHQGLSSPVTKSFNRGEC
Regarding B6, in test [1], binding was characterised by a dissociation constant (Kd) of 24 pM, the koff is 3.8e-05 s⁻¹ and the kon amounted to 1.6e+06 M⁻¹ s⁻¹.

B7: peptide-IgG 33^HR1 (peptide p102 fused to the N-terminus of the heavy chain of IgG 15033) (antibody)
heavy: not shown
light: DIQMTQSPSSLSASVGDRVTITCRASQSVSSAVAWYQQKPGKAPKLLIYSASDLYSGVPSRFSGSRSGTDFTLTISSLQPEDFATYYCQQSYRYPITFGQGTKVEIKRTVAAPSVFIFPPSDEQLKSGTASVVCLLNNFYPREAKVQWKVDNALQSGNSQESVTEQDSKDSTYSLSSTLTLSKADYEKHKVYACEVTHQGLSSPVTKSFNRGEC
On to B7, for which, in test [1], the Kd is less than 1 pM, the koff was less than 1e-07 s⁻¹ and the kon amounted to 1.2e+06 M⁻¹ s⁻¹. For the same molecule, the “fold improvement of apparent KD relative to IgG 15033” value in test [3] was greater than 100 fold.
